The test has as its target T1, Myc-ArPIKfyve^WT (human), Q08AM6.
T1 chain: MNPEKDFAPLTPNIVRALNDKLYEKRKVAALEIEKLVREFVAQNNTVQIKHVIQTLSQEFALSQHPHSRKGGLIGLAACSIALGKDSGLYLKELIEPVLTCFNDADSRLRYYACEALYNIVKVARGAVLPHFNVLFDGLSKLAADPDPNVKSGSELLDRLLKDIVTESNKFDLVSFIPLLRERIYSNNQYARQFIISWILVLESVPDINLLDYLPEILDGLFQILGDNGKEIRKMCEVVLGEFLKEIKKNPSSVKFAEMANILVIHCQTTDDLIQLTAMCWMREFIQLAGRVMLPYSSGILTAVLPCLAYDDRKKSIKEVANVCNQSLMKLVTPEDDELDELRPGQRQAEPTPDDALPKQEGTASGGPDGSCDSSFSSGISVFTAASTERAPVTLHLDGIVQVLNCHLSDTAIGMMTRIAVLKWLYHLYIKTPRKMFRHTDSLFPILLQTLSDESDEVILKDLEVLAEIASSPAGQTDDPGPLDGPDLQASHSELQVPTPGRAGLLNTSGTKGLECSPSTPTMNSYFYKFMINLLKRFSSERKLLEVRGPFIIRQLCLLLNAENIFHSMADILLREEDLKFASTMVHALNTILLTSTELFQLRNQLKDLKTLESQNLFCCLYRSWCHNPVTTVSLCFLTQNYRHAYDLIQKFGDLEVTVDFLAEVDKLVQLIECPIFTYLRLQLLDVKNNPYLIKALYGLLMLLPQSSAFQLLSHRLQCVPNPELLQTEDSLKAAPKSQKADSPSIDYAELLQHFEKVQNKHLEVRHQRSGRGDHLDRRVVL
The test is described as follows: cross-linking. To be noted: remark: other sources report otherwise.

Values joined by “and” are separate entries in the source; they are usually repeats but may differ in a detail not shown here. Equal entries are not always repeated.

B1: Myc-ArPIKfyve^WT, Q08AM6 1-782 (natural protein)
chain: T1 chain
In the case of B1, the stoichiometry N was 2 and 3.

In general, stoichiometry N refers to the number of molecules, sites or subunits per partner or assembly.

For the origin of these results see PMC2756758.
